In IntAct's records for PubMed 12502741:

Target: rb_human RB1 (UniProt P06400)
Sequence (P06400 whole entry): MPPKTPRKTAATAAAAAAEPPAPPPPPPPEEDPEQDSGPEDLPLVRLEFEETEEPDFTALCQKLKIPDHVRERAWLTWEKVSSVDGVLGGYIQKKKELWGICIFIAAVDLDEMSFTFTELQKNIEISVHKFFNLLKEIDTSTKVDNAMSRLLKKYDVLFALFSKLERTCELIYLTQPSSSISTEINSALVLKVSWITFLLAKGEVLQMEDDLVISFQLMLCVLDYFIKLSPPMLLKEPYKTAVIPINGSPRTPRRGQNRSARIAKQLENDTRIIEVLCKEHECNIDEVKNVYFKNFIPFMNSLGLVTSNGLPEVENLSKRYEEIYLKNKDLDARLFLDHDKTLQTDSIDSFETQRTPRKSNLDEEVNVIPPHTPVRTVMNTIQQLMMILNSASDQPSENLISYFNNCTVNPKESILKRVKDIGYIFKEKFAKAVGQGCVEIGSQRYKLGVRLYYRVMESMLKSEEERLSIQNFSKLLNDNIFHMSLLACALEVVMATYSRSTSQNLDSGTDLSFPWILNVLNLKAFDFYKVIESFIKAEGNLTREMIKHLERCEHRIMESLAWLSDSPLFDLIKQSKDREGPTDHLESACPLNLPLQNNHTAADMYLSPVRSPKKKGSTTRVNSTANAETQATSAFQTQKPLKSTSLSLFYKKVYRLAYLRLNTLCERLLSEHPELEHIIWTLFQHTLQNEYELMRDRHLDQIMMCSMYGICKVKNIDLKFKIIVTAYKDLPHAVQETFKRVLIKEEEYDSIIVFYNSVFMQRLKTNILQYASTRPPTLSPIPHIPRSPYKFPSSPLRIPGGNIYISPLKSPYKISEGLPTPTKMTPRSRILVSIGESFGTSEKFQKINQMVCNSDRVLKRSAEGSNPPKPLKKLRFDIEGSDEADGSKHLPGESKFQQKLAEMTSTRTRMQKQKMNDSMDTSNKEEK

Sequence of Transcription factor E2F2 (Homo sapiens), Q14209 G421S (Q14209 whole entry G421S): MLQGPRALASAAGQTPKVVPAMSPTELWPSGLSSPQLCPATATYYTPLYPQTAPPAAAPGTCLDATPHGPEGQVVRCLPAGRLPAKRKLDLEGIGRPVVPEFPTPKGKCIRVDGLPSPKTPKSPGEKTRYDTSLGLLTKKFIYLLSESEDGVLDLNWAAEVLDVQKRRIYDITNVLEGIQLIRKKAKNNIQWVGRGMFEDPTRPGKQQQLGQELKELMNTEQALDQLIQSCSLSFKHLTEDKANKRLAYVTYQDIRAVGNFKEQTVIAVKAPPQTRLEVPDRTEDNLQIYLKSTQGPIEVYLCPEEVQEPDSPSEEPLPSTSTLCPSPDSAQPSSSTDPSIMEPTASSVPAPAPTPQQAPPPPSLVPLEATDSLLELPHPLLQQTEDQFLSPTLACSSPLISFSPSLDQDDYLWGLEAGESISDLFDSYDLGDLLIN
Sequence of Transcription factor E2F2 (Homo sapiens), Q14209 E420A (Q14209 whole entry E420A): as the sequence (Q14209 whole entry G421S) above, with E420A, S421G counted along it

| effect of a mutation on the interaction | Substance |
| --- | --- |
| decreasing interaction strength | Transcription factor E2F2 (Homo sapiens), Q14209 E420A |
| decreasing interaction strength | Transcription factor E2F2 (Homo sapiens), Q14209 G421S |
